Laboratory results: patent publication US20240352121A1, “LAIR-1 AGONISTIC ANTIBODIES AND METHODS OF USE THEREOF” (NEXTCURE, INC., priority 2023, published 2024)

Legend:
SHP-1 = SHP-1 phosphorylation in primary patient AML blasts (Western blot); type: cell-based, human
Method: FIGS. 4A-4O show the collagen matrix is vital to LAIR-1 induced AML cell death. (FIGS. 4A-C). Flow cytometry quantification of primary live, dead, or apoptotic total blood leukocytes after ex vivo treatment with 10 μg/mL IgG isotype control (gray) or LAIR-1 mAb (red) in the presence (FIG. 4A) or absence (FIG. 4B) of exogenous collagen, or (FIG. 4C), CD451^Lo SSC^Lo blast cells in the presence of isotype control or LAIR-1 mAb. N=3 technical replicates. […] Each dot represents an individual donor. Red shading highlights surface expression >20000 arbitrary units. Blue shading highlights expression <20000 units. Line represents simple linear regression. […] N=4-7 donors. […] Mean pixel density from Western blotting normalized to isotype control condition and graphed relative to total SHP-1. N=3 technical replicates. […] FIGS. 4M and 4N) 4E-BP1 expression as measured by Lumit assay (FIG. 4M) or cleaved caspase-7 as measured by Western blot (FIG. 4N) of cells treated as shown in FIGS. 4I-4K. […] P values calculated by Student's t test. […]
For assessment of signaling in healthy cells, human monocytes were isolated from PBMCs from two donors using a StemCell monocyte isolation kit (StemCell, Vancouver, BC). […] Data were quantified using FIJI (NIH, MD).

SoC-resistant AML cells = assay: Ex vivo killing of VEN/AZA-treated AML patient leukemic cells; type: cell-based, human; conditions: 5 μg/mL of antibody; fresh BM leukemic cells from a patient treated with VEN/AZA
Method: Ex vivo killing of VEN/AZA-treated AML patient leukemic cells (FIG. 7A) or T cells or NK cells (FIG. 7B). Values normalized to vehicle control. Lines represent linear regression of NC525 concentration versus normalized cell killing. […] FIGS. 7D and 7E show in vivo leukemic growth as measured by whole-body luminescence of MV4-11-luciferase cells (FIG. 7D) or survival (FIG. 7E) of CDX mice treated with 10 mg/kg isotype control (gray) or NC525 (red) or 100 mg/kg VEN (pink) or 0.5 mg/kg AZA (blue) or combination therapy (green or yellow, respectively). BLoD, below limit of detection. n=9 mice per group. P values determined by 2-way ANOVA or log-rank (Mantel-Cox) test, respectively. FIGS. 7F and 7G show leukemic growth in the blood (FIG. 7F) and in the spleen and BM (FIG. 7G) at week 8 after transplant of AML PDX mice treated with vehicle (gray), VEN/AZA (blue), NC525 (red), or VEN/AZA plus NC525 (green). n=5-10 mice per group. AML cells in spleen and BM compared from 4-5 mice per group. Data are shown as the mean±SEM. P values determined by 2-way ANOVA or 1-way ANOVA with multiple comparisons.

human LAIR-1 = target: T1, human LAIR-1 (Homo sapiens, UniProt Q6GTX8, D63E/L98P/R92S/S123T); assay: Cell binding to human LAIR-1 cells by flow cytometry; conditions: UT-140 cells
T1 construct: expressed in transfected cells
T1 sequence (Q6GTX8 22-287 D63E/R92S/L98P/S123T): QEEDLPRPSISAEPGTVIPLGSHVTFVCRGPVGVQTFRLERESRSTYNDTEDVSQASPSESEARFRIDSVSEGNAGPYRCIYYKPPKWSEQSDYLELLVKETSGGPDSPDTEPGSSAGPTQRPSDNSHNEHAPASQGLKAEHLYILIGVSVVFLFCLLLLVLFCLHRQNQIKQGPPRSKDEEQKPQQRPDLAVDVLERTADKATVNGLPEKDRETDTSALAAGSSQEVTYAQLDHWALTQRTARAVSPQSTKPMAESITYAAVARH
Method: FIGS. 21A-21B display LAIR-1 binding properties including h11B3 LAIR-1 mAbs binding to cells expressing human LAIR-1 or cynomolgus LAIR-1 as measured by flow cytometry. The h11B3 LAIR-1 mAbs include a variable light chain of SEQ ID NO: 16 and a variable heavy chain of SEQ ID NO: 21, as shown for Anti-LAIR-1 Variant 6 in Table 1 herein. […] Cells were incubated for 30 min on ice with titrated concentrations of h11B3. AF647 conjugated secondary antibody was used at 1:2000 dilution. […] Cells were incubated for 30 min on ice with titrated concentrations of h11B3. AF647 conjugated secondary antibody was used at 1:2000 dilution.
For cell binding assays, 5e4 UT-140 cells or mouse LAIR-1-transfected 293T cells per well were plated in 200 μL PBS in a 96-well round bottom plate, centrifuged for 4 minutes at 500×g for a single wash, and blocked for 10 minutes on ice with flow cytometry buffer (PBS+2% FBS+0.1 mM EDTA) containing 1:50 dilution of TruStain™ Fc block (Biolegend, San Diego, CA). Cells were subsequently stained for 30 min on ice with titrated concentrations of soluble AF647-labeled LAIR-1 mAb or AF647-labeled isotype control. Cells were then washed 3 times as previously described and binding was measured by flow cytometry using an Attune NXT flow cytometer. […] GFP expression was measured by flow cytometry using an Attune NXT Flow Cytometer.

B1: LAIR-1 mAb: humanized agonist anti-LAIR-1 mAb, IgG1 backbone; h11B3 VL-2 (SEQ ID NO: 16), h11B3 VH-3 (SEQ ID NO: 27) (antibody, V domains shown)
VH: EVQLVESGGGLVQPGGSLKLSCAASGFTFNTNAMYWVRQAPGKGLEWVGRIRSKSSNYATYYAASVKGRFTISRDDSKNTLYLQMNSLKTEDTAVYYCVRGGSGFFAYWGQGTLVTVSS
VL: DIQMTQSPSSLSASLGDRVTITCKASEDIYIRLAWYQQKPGKAPRLLISTATSLETGVPSRFSGSGSGTDYTFTISSLQPEDIATYYCQQYWSTPYTFGGGTRLEIK
modifications: IgG1 constant regions; Synthetic: h11B3 VH-3; Synthetic: h11B3 VL-2
increase of SHP-1 phosphorylation relative to control (SHP-1; LAIR-1 mAb alone): 25%
increase of SHP-1 phosphorylation relative to control (SHP-1; cotreatment with LAIR-1 mAb and collagen): 50%
killing of SoC-resistant AML cells (SoC-resistant AML cells): up to 70%
binding to human LAIR-1 (human LAIR-1): specifically binds
